For this assay, the target named is T1, Ubc9 (wild type) (UniProt P63279 1-158).
T1 construct: Ubc9, the single SUMO conjugating enzyme (E2); the crystal structure PDB 2GRN chain a served as its model; Uniformly 15N-labelled for NMR; also called WT Ubc9; Ubc9WT; source: recombinant, purified (Ni-NTA chromatography, gel filtration)
Description: ITC; 2 μl additions of peptide to 200 μl of WT Ubc9 or Ac-Ubc9K65; 25 °C; pH 8.0, 20 mM potassium phosphate, 100 mM NaCl; iTC200; fitted assuming 1:1 binding stoichiometry. Conditions: both partners purified. On the technique in general: ITC needs no label: the signal is the heat of the interaction.

T1 sequence (P63279 whole entry): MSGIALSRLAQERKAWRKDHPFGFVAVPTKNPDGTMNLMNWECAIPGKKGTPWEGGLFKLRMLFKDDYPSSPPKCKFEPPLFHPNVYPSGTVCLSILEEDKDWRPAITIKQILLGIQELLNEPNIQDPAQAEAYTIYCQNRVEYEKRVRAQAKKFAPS

B1: CBP NDSM peptide (peptide)
chain: VKVEVKEEEESSSN
modifications: Synthetic peptide; true ends and caps are only in Figure 1A. Limits used here are the Psi-K-x-E core through x10 (x1-x10 = VKEEEESSSN, Supplementary Table 1), around sumoylation site K1056
In turn, B1 returned a dissociation constant (Kd) of 57 µM.

As a reminder, the Kd is a measure of binding affinity in units of concentration. Read a low Kd as tighter binding.

(Values after PMC5727262 (Scientific Reports, 2017).)
